Results published in doi:10.1101/591495 (bioRxiv, 2019).

Molecular target: the molecule itself
Test: atomic force microscopy

B1: B. stearothermophilus tryptophanyl-tRNA synthetase (TrpRS) (enzyme, UniProt P00953 1-328, looked up)
chain: MKTIFSGIQPSGVITIGNYIGALRQFVELQHEYNCYFCIVDQHAITVWQDPHELRQNIRRLAAKYLAVGIDPTQATLFIQSEVPAHAQAAWMLQCIVYIGELERMTQFKEKSAGKEAVSAGLLTYPPLMAADILLYNTDIVPVGEDQKQHIELTRDLAERFNKRYGELFTIPEARIPKVGARIMSLVDPTKKMSKSDPNPKAYITLLDDAKTIEKKIKSAVTDSEGTIRYDKEAKPGISNLLNIYSTLSGQSIEELERQYEGKGYGVFKADLAQVVIETLRPIQERYHHWMESEELDRVLDEGAEKANRVASEMVRKMEQAMGLGRRR
Kd: 5 nM
